Test results published in paper doi:10.1101/797027.

Molecular target: hRpn10^322–366 peptide with Y326 phosphorylated (human) (UniProt P55036)
Assay: ITC

E6AP AZUL domain, E6AP[24–87], sequence (Q05086 24-87): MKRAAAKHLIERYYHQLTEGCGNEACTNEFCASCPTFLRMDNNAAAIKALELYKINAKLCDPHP

E6AP AZUL domain, E6AP[24–87] (from UniProt Q05086 24-87) (domain or fragment)
fold reduction of affinity against unphosphorylated hRpn10^322–366: 10 fold
